Key:
[1] = target: thrombospondin (TSP), immobilized (UniProt P07996); experiment: cytoadherence assay, IEs on immobilized TSP, mean and SD of triplicates
[2] = target: Partially purified CD36 (CD36 fraction) from human platelets, immobilized (human) (UniProt P16671); experiment: cytoadherence assay, IEs on immobilized CD36, mean and SD of triplicates
Partially purified CD36 (CD36 fraction) from human platelets, immobilized (human), sequence (P16671 2-472 limits assumed, form in doubt): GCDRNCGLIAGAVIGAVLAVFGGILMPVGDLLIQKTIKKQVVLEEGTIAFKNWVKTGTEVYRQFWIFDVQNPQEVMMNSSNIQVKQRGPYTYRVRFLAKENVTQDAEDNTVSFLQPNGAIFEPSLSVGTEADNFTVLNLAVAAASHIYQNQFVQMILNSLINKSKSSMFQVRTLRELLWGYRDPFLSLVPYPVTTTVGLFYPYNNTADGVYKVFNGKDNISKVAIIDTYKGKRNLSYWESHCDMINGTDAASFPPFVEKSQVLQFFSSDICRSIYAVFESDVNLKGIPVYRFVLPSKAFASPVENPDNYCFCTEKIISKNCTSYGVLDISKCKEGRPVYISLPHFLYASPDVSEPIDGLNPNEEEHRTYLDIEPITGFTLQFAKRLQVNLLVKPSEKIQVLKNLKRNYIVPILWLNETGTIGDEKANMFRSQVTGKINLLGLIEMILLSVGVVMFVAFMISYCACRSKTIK

thrombospondin (TSP), immobilized, sequence (P07996 19-1170 limits assumed): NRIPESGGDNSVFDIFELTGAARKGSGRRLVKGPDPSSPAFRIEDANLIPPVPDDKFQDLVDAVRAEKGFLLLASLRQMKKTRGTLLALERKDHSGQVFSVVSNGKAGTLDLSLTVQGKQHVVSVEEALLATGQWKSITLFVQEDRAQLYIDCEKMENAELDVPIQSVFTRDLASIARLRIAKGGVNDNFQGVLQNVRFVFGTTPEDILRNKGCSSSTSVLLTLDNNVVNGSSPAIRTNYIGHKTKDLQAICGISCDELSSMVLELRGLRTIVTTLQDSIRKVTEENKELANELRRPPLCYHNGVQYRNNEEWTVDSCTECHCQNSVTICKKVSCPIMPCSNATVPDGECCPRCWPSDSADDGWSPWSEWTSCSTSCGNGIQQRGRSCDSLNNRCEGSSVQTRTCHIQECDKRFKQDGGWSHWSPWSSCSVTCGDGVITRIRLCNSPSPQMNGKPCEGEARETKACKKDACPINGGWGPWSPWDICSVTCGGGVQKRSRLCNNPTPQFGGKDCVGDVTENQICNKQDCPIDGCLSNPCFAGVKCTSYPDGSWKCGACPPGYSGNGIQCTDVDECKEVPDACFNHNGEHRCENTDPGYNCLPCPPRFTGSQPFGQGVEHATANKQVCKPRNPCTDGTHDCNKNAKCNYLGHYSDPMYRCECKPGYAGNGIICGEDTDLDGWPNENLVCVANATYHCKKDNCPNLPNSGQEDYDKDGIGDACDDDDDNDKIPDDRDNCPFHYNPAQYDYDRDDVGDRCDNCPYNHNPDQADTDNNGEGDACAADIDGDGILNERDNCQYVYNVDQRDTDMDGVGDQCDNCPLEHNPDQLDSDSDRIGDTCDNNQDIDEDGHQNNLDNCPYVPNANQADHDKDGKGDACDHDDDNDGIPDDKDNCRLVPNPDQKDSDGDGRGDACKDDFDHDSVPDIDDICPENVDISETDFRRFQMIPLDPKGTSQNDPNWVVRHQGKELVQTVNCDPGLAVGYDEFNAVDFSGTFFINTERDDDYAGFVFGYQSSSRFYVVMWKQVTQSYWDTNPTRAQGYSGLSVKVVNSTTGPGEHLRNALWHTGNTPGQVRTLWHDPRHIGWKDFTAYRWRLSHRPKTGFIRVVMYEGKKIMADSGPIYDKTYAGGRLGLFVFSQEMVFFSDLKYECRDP

For “Chymotrypsin cleaved AE1 on infected erythrocytes (from UniProt P02730 1-911)”, the percentage of bound IEs/mm^2 as compared to untreated cells [1] was 81% and the percentage of bound IEs/mm^2 as compared to untreated cells [2] was 10.2%.

Source: US20050059588A1, “Peptides which generate antibodies resulting in lysis of pathologically adherent erythrocytes” (REGENTS OF THE UNIVERSITY OF CALIFORNIA, priority 2003, published 2005)
